Data published in publication PMC13274938.

Biological target: Q23-APEX-GT2 trimer (Q23-APEX-GT1-T132R-S158T) (HIV-1 (Q23.17))
Test: cryo-EM structure

B1: CH70-Apex2.01 Fab (Fab, V domains shown)
VH: QVQLQESGPGLVKPSETLSLTCAVSGGSISDDYYWTWIRQPPGKGLEWIGYIYGDGGDTKYNPSLKNRVTISIDTSKNHFSLKVNSMTGADTAVYYCAREGRGQFWYDEDYGQFYVPGGLDSWGQGVVVTVSS
VL: DIQMTQTPLSLSVSPGEPASISCRSSQSLLHTDGYDYLDWYLQKPGQSPQLLIYGGSDRPSGVPDRFSGSGSGTDFTLKISRVEAEDVGVYYCMQHKALPRTFGQGTKVEIK
How did the stoichiometry N (Fab per trimer) turn out when B1 was run?
The stoichiometry N (Fab per trimer) was 1.
